Measurements as given in patent publication US20200325476 (published 2020).

Key:
[1] = target: T1, alpha-synuclein (monomer) (UniProt P37840 P37840:1-140); assay: MST; 1x PBS, 0.05% Tween-20, 25 C; 50 nM aptamer
[2] = target: T1, alpha-synuclein (monomer); assay: footprint; DNase I; positive control; apparent Kd estimated from three bands but value not given in text; DPBS, 37 C
[3] = target: T1, alpha-synuclein (monomer); assay: footprint; DNase I; apparent Kd estimated from three bands but value not given in text; DPBS, 37 C

Binder | Kd [1] [nM] | other results
a-syn-3 (GdJUhe) (ssDNA) DNA: ATAGTCCCATCATTCATTGTATGAGATGGGGTGGTGACGTCAGCATGGAGATATTAGCAAGTGTCA | 94.2 | –
a-syn-2 (1LBiGJFJC) (ssDNA) DNA: ATAGTCCCATCATTCATTGTATGGTACGGCGCGGTGGCGGGTGCGGGGAGATATTAGCAAGTGTCA | 286 | –
M5-15 (ssDNA) DNA: ATAGTCCCATCATTCATTGTATGGTACGGCGCGGTGGCGGGTGCGTGGAGATATTAGCAAGTGTCA | – | binding result [2]: binds
a-syn-1 (1LBwAAjJ) (ssDNA) DNA: ATAGTCCCATCATTCATTGTAAGGAAACGCTACGGGGTGGGTACGGCAAGATATTAGCAAGTGTCA | – | binding result [3]: binds
